assay: label from the status in PepcDB records
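Further: failed if final PepcDB status was selected cloned or expressed and not failed if soluble or beyond.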

**Q.** With “MTSHKPYWPIGVFTSVDAGLGVHLEVAQDLKVPTVQVHAPHPHTRTREHAQAFRAKCDAAGIQVTVIFGGFDGESYADIPTTARTVGLVPLETRASRVAEMKEISDFASWVGCPAIGLHIGFVPESSSPDYSELVRVTQDLLTHAANHGQAVHLETGQESADHLLEFIEDVNRPNLGINFDPANMILYGTGNPIEALRKVARYVRSIHCKDALWAPVNERGKSWGQEVALGTGDVGMEAYLTTLWEIGYRGPLTIEREIPHDPVQQKKDLASALELLTGLRKKIANC” as the sequence, how does the protein production read?
**A.** Its protein production is “not failed”.

**Q.** For “MTSIHVQVPATTANIGAGFDCLGAALSLHNQFQFRLAGESEPFFSLELVGADVETQKLEATADNLLYRAFAKVFATLGQPVPHVNIAIDLKVPLSRGLGSSATAIVGGLVGANALAGSPLSQREIMNLAIEMEGHPDNVVPALLGGCQLSVKHQQDWVI”, which protein production is on record?
**A.** The protein production was “failed”.

**Q.** Which protein production does the source give for “MTSKKNSDVIYKSSSNILNEMRAGLIKGAGQDMERIKKRPLIAIANSHSELTTGHAHLAGLGAKVKQGIIAAGGEFAEFNVPAPCDGIAMAHDGMRYVLAQRDLIADIVETHVRSQAFDAVVFIAGCDKINPGMMMAMGRLDLPSLFLAGGPGQMNIRNTPTFNGNIDHGNYFNSPLEFKETFNCASCGACEFMGTANTFQCLAEALGICLPGSANIPAWHSDKLAAARATGEHIVHLFKEGITARQIMTKEAFNNALVMNMAIGGSTNAALHLPAIAHSAGIEMDIKAFETVDHIPTLLAISPNGPYGVQDLWAAGGMPAVMKVMQSDLDTSCLTVTGLPLQATIDNATILNPKVIPERSKPNRQEPGITVLRGNLAPEGCVIKQAGVKPELMYTSGPAICFDSEDDAINMIQDGKLKEGQVIVLRYMGPKGAPGMPEMLGATLALKVAGLSSASLITDGRFSGATSGPCVGHITPEASNGGFIAFIEDGDIITVDIKNRSIHCDVSDEEIEKRKQNWAPTIKPVAFGFMERYRKHVKTASEGAILD” here?
**A.** The protein production was “failed”.

**Q.** Which protein production does the source give for “MTSLEEITKAIMADSQNKVFTEKNIEPLFAAPKTARINIVGQAPGIKAQESRLYWNDKSGDRLREWMGVDYDTFYHSGYFAVIPMDFYYPGKGKSGDLPPRKGFAQKWHQPILDLLPDIQLTILIGNYAQKYYLHQKSSVKLTDTVAHYKKYLPDYFPLVHPSPRNQIWMSRHPWFEAQVVPDLKKIIQQIIQSS” here?
**A.** The protein production was “not failed”.

**Q.** For “MTSLSQFEPLFLEFMQQEMQVDAAHDIEHVKRVVKTAKQLCDEENADIAIVLPAAYLHDCFTYPKDHPNRKQSSAIAAKKAIAYLESIQYPQHYHDAIAHAIEAHSFSANIRPNTLEAQIVQDADRLDALGAIGVTRCIQVSTHFNAQLYNDNDMFAKERELNDKQFTVDHFQTKLFKIADTMNTESAKLEANKRKAFMQTYLKQLHDEVTALEHHHHHH”, which protein production is on record?
**A.** The protein production was “not failed”.

**Q.** With “MTSRSDAGVFHVRALLLGVLYVCGSLLFVTSMLSKTTTLTNVSSNTCPTVRGVDQIIVLLVDALRPDFVLPALSPHYLDGVECSTVSARGVDGNVNGDRRSTLTYMEENLKRVAHPSHGFFFLSDTPTITAQRIKAITTGTTPAFLEVGTNLNTDEVQIDNILLQLRRRSILLGDDTWLNLFPDHQGNASFWKHTHALPPYNVSDFDTNDATVIADLMPLLLSETAEQAPDDYARLIIGHLLAVDHVGHRHHASHPAMYKKLSDINEMLRNVTKRLREERQTSMRTLLVVFGDHGMTNSGDHGGDSEGERDSFMYAELFESSRDSVHAPVNSSDKFQRKNNLTEKRWEDNIDEDLSRLKACRDVAGVHPGKLSAVHQVDLTPTLALLLGVPIPFSNVGRVIPEMVALSNPDVNMSASEECNWKQLTSYFDEAGLYIKPEWKDSNLSLRRRIAQMSHFARSIRMEIRRDGAFIGSSLCMVTALSLLRNGDIQQVICGRSVLGIGTLFLLVLRLLAVFANSFIIKESVEVFCLLQLLLIAALFVAPTKGGGRHASFLIVILLVLLRVAVPLVSRERSHITHTAEATSHLEMWLAKQFPEFHYNSVGIILGAALFVFSAPTMPHRLMGIVLGTVAAVCYGQPLIHHIGPFVFFALTFFFRGMGPLRYTALVLWSSSLCNDNYVASASIAVSGVLLPVVLTATRHLPVVPQALMLHLYMWVSFFAQGNQCLLNTVDLNASFVGLPFNSVALGSVFVLSRLCNAFLFAPIAVMITYGTDRARGWRVCYLLLYITLAQSAVSSFNGYIQKSHLMFFPIFCPKFIFDFCIGMAACIGYALAALLA” as the sequence, how does the protein production read?
**A.** The protein production was “failed”.

**Q.** For “MTSRTRDTDTDRATDTDTDRATATLDHAMARSQGLDTLLRDLTDRAVVQVPGAVACSVTVRRADRLMTLAGSTGLPSGLDLRQYENGSGPCVDAAESGDAQYCADLAEETRWPAYTEYALATGVRCVLALPLPIEGETGAALNLYGLVPGSLVQGLDAARAFAERAADAVNEALRIERRQASAADVRTALLSRSVIDQAVGMLMARERIDAHRALERLRRASQDRNVKLRDLCAQVVARASGGASHRGQ”, which protein production is on record?
**A.** Its protein production is “failed”.

**Q.** For “MTSTPPTPGPKLLEERSLGGILIHFLAIPTGVVGAGLLYLLATDEFTKRNARNALDWHLTVLLITAVTFGSVFTYAELTGQGVTDVSIFPSSVSTVAGIVTSALLMLWFAVTAWTFAVGLIAMVKAIFGTAWRYPFSLALVERFGSHINLSDRWPLVILGYIVLSPLLIWAVFFVPANDAIVILSAFGLLGLILGLTPLTGIAMYRHGKEHWLQDADQQSHVFAHVGLPILVAAIGYVVSWSFTQSVSPQGDAMYVFLAAFWISSIVYLIRWWTTSSE”, which protein production is on record?
**A.** The protein production was “failed”.

**Q.** Which protein production does the source give for “MTSVSGCGSVSLITNRSAFLGNGLQHRAVFLKPWSSSSLQSRSMVVEAKTKTSSEDRIARHSRIRKKVNGTTERPRLCVFRSNKHLYVQVIDDTKMHTLASASTKQKPISEEFDYTSGPTIEVAKKVGEVIAKSCLEKGITKVAFDRGGYPYHGRIEALAAAAREHGLQF” here?
**A.** Its protein production is “failed”.

**Q.** For “MTTATSERQKTLLFKAAERQWKEEFAGKETDIRKVDCNIYKGILYQLEIRQVFLDTSLSLKKLSALLETNQTYLSNVVNKYFGCNLKELVNTYRVEYAKELLCSRRCALTELPCSCGFASKSAFYSAFSRIVGVSPLSYQTQERRLEHHHHHH”, which protein production is on record?
**A.** The protein production was “not failed”.

**Q.** For “MTTAYNHLCTAFTRLSRFEHLSAIAGWDMQTMMPAKGNLARSEAMAELNVLQHQILTAPQIGEWLKQAEQELLDEQSIDELKLANLREMHRHYHNAVLLPESLVEAKSLAGARCEHAWRQQRIANDWAGFAENLREVVKLSREEAKIRAEAAGTSGYDALLNLYEPGTNSADIDRIFGDLKQWLPALLQKVTTKQQSSEPCLIPQGPFDLEKQRQLGLSVMKVLGFDFNGGRVDVSVHPFCGGVPQDVRITTRYNNQEFLSALMGIVHETGHARYEQNLPREWLGQPIAHARSTAIHESQSLLFEMQLARSNEFLQVIHPLVIQQFGEQPAFAEHNFIALNQRVKTGLIRVDADEVSYPAHVILRYEIEKALIGGEIDVEDIPALWNEKMQQYLGINTEGDYRNGCMQDIHWTDGAFGYFPTYTLGAMYAAQLFHAARSAIPALDSHIANGNLAPLLNWLQQNIWQHGSRYPTAELITKATGEPLNPRYFRQHLERRYL”, which protein production is on record?
**A.** Its protein production is “failed”.

**Q.** With “MTTCGEFLVKQLEAWGVETVFGIPGVHTVELYRGLPGSRIRHVTPRHEQGAGFMADGYARVTGKPGVCFIITGPGMTNILTAMAQAYADSIPMLVISSVNERARLAHGNGYLHELPNQRNLVGNVCAFSHTLMSAEELPAVLARAFAVFDSERPRPVHIELPLDVITAPAEHLALRPRTVTSRPAPALAPLREAAARLRNAKKPLLLLGGGCVEAAAEARALAAALDAPTALTINAKGLLPADHPLLLGSNQSCVPVRELATEADVVLAIGTELGETDYDVVFDGGFALDGELIRIDIDPQQLMRNYTPSLAIHSDARLAMRVLLAELPGGEASPDSPGARRAAAVRQRLAEDFAGWSHYRQLFAAILAEWPDARFVGDSTQTVYSGNHLVDLDEPRRWFNASTGYGTLGYGLPAAIGAKLGEPGRPVVSLMGDGGLQFTLPELASAVEAKVGIVVLLWNNHGYGEIKRYMERREITPLGVDIYTPDFLAIARGFGCAAERARDLEHLRELLRGAPADRPLIVEVLQAAPFHP” as the sequence, how does the protein production read?
**A.** The protein production was “failed”.

**Q.** For “MTTEAPIWPAELFEDLDRNGPIPLYFQVAQRLEDGIRSGVLPPGARLENEISVAKHLNVSRPTVRRAIQEVVDKGLLVRRRGVGTQVVQSHVTRPVELTSFFNDLKNANLDPKTRVLEHRLLAASSAIAEKLGVSAGDEVLLIRRLRSTGDIPVAILENYLPPAFNDVSLDELEKGGLYDALRSRGVVLKIANQKIGARRAVGEESTLLDIEDGGPLLTVERVALDNSGQVIELGSHCYRPDMYNFETTLVAR”, which protein production is on record?
**A.** The protein production was “not failed”.

**Q.** Which protein production does the source give for “MTTETIQSNANLAPLPPHVPEHLVFDFDMYNPSNLSAGVQEAWAVLQESNVPDLVWTRCNGGHWIATRGQLIREAYEDYRHFSSECPFIPREAGEAYDFIPTSMDPPEQRQFRALANQVVGMPVVDKLENRIQELACSLIESLRPQGQCNFTEDYAEPFPIRIFMLLAGLPEEDIPHLKYLTDQMTRPDGSMTFAEAKEALYDYLIPIIEQRRQKPGTDAISIVANGQVNGRPITSDEAKRMCGLLLVGGLDTVVNFLSFSMEFLAKSPEHRQELIERPERIPAACEELLRRFSLVADGRILTSDYEFHGVQLKKGDQILLPQMLSGLDERENACPMHVDFSRQKVSHTTFGHGSHLCLGQHLARREIIVTLKEWLTRIPDFSIAPGAQIQHKSGIVSGVQALPLVWDPATTKAV” here?
**A.** Its protein production is “not failed”.

**Q.** For “MTTFHADSSITRTFWRYAIPSIAAMVVSGLYQIIDGIFVGHYIGFEGLAGINMAWPAICILGAIGVMVGMGTGSVMSIYRGENKLEKTKVALTTGFWLLAILSIIAISCIVLLAKDILLAQGAEGQNFAYAMDYINVLMFGGFFTACATALPMLVRNDESPNVATFLLVIGALINIVLDYVFIGVMGLGLSGAALATLMAQACVTVLGIGYFFTQRSSIQITLQEVLFSWNKAKQSLSLGASALVMYLYGSFVVAMHNALMMYYGSATTVGAYAIVGYLFMLYYLLAQGIAEGAQPPISYYFGARENKKVYQIFKIALKWVIITGIGWVTILNISPELTTALFTNGDKALIAETIVGIRYHLFAMFLDGMIVLITIYFLSVNEGKKAMVISISNIVIQLPFLLILPKWFGIDGVWLAMPVSNIALIICIAPMVWNHLKTQKIIKPLPLTSTSVMSH”, which protein production is on record?
**A.** Its protein production is “failed”.

**Q.** With “MTTGVRRRMGVEERRQQLIGVALDLFSRRSPDEVSIDEIASAAGISRPLVYHYFPGKLSLYEAALQRASDDLADRFVEPRQGPLGARLLRVMGRYFDFVDEHGPGFSALMRGGPAVGSTTTNALVDSVRQAAYVQILSHLDVTEPPARLELVVRSWISLAESTALLWLDGRRIPRAELETQLVHDFAALMAVSAAYDEEMGALVRRVLADEPEDGPFGDLVDRLLALSAR” as the sequence, how does the protein production read?
**A.** The protein production was “not failed”.

**Q.** With “MTTIAILSDIHGNMTAFSAVIQDAKAHQADEYWFLGDLFLPGPGSDKLWATLHGLKPTHIVKGNWDDDLFWVLDGPVDLSQPTDVYFSRLVAYLWPHLTAENLATIRNWPLHEVFEQDGLIVSLAHNLPDKNHGHALYPDQPQLNFDQIAPDSQIDLAVYGHTHQQLLRYTSNGQVILNPGSIGQAYSPRPHLQTTTYADYALLQLNDGAITDLDLRQVPYDVSAELSLAKQQQLPYPEVYTKLRHTGATSTHNAAYLKQFEQRHDYQQEVAEFLHKYRHQHLEHHHHHH” as the sequence, how does the protein production read?
**A.** Its protein production is “failed”.

**Q.** For “MTTIRVENLSKIFKKGKTEVKAVDNVSITIDSGMAFGVLGPSGHGKTTFLRLIAGLEEPTSGYIYFDNEAVSSPRRVMMSPEKRGIAMVFQNWALYPNMTVFDNIAFPLKLAKVPKDKIENKVKEVSEELGLSGVLNRYPKELSGGQMQRTAIARALVKDPKVLLLDEPFSNLDAQIRESARALVRKIQRERKLTTLIVSHDPADIFAIANKAGVIVNGKFAQIGTPTEIYEYPATDLIARLTGEINLIQAKIIENNAIIANLKVPLNNMELKGQSNIVIGLRPDDLTLSDTLLDKYIDMGIVKVKLVSYGAGIFKIVVSPITDENIDIIVDAEEPLETGIETHLLAKPNKVKIFDLNGSNLITSKTQIIK”, which protein production is on record?
**A.** Its protein production is “failed”.

From a protein production outcome set (Wang et al. 2014)
